Results taken from patent publication US20020147151A1 (TRUSTEES OF BOSTON UNIVERSITY, published 2002).

Molecular target: T1, native GST (UniProt P08515 1-218 = GST)
T1 construct: also called rGST; GST alone
Assay: pull-down of 35S-labeled rIL-16 on GST-coated glutathione-Sepharose beads, autoradiography (control for non-specific binding)
Experimental: Specificity of the interaction between rIL-16 and D3D4 was assessed by competition with an excess of unlabeled rIL-16. ³⁵S-labeled rIL-16 incubated with GST (lane 1); ³⁵S-labeled rIL-16 incubated with GST-D3D4 (lane 2); ³⁵S-labeled rIL-16 plus excess unlabelled rIL-16 incubated with GST-D3D4 (lane 3); ³⁵S-labeled rIL-16 plus 10 ug/ml peptide A (lane 4); ³⁵S-labeled rIL-16 plus 10 ug/ml peptide B (lane 5); ³⁵S-labeled rIL-16 plus 10 ug/ml peptide C (lane 6); ); ³⁵S-labeled rIL-16 plus 10 ug/ml peptide A and peptide B (lane 7). The arrow indicates the position of IL-16 on the gel. The identity of this band was re-confirmed by immunoblotting with anti-IL-16 antibody.
To investigate IL-16 interaction with the D3D4 of CD4, the GST-D3D4 fusion protein, or GST alone, was bound to the glutathione-conjugated Sepharose 4B beads. Five ul of the in vitro translation product containing ³⁵S-labeled rIL16 was added to 15 ul of the bead-bound proteins in 230 ul of PBS and 50 ul of NETN buffer (150 mM NaCl, 1 mM EDTA, 0.5% NP 40, and 50 mM Tris, pH 8.0). After incubating at 4° C. for 2 h, the beads were washed 3 times in NETN buffer. The GST-D3D4 or GST proteins were released from the beads by boiling in SDS gel loading buffer, and the supernatant was analyzed by 12% SDS-polyacrylamide gel electrophoresis (SDS-PAGE). The presence of ³⁵S-labeled mrIL16 was detected by autoradiography of the dried gel. […]

T1 sequence (P08515 whole entry): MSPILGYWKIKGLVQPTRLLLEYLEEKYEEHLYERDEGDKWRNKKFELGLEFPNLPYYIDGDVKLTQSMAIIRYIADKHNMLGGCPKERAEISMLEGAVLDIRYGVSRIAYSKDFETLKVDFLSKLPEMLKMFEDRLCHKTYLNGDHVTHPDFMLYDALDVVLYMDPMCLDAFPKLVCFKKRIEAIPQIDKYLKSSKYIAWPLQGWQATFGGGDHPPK

- binding result: no binding
B1: 35S-labeled murine rIL-16 (in vitro transcription and translation product, C-terminal 119 amino acids) (ligand, mouse, UniProt O54824 1204-1322, looked up)
chain: DSAASASAASDISVESKEATVCTVTLEKTSAGLGFSLEGGKGSLHGDKPLTINRIFKGTEQGEMVQPGDEILQLAGTAVQGLTRFEAWNVIKALPDGPVTIVIRRTSLQCKQTTASADS
modifications: [35S] methionine
notes: domain: C-terminal 119 amino acids; also called radiolabeled murine IL-16; 35S-labeled rIL-16
